From patent US20190359687A1 (Bayer, published 2019)
Residue numbers refer to the chain shown, from its start.

T1: purified human glycophorin A protein (Sigma, cat # G5017) (human, UniProt P02724 20-150)
T1 construct: mature; also called Sigma hGPA; Sigma GPA
T1 sequence (looked up): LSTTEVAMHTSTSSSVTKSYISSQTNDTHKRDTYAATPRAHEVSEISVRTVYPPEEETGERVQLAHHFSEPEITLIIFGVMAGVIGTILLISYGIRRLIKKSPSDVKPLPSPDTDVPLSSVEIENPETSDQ

T2: human glycophorin A in the red blood cell membrane (human, UniProt P02724 20-150)
T2 construct: whole, on cells; used for intact RBC, isolated RBC membranes and transfected cells; the assay field tells which; also called GPA; hGPA
T2 sequence (looked up): T1 sequence (looked up)

T3: Rhesus monkey glycophorin A on Rhesus monkey red blood cells (Rhesus monkey, UniProt A0A1D5Q349 20-150)
T3 construct: whole, on cells; also called Rhesus RBC; monkey GPA
T3 sequence: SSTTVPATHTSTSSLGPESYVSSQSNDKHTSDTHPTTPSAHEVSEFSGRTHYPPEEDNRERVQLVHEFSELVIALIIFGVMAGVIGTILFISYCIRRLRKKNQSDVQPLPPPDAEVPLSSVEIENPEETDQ

T4: glycophorin A peptide GP5 (human, biotin at the N-terminus)
T4 construct: Residues 42 to 61 of the human glycophorin A extracellular domain
T4 peptide: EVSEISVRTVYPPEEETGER

B1: Hu6C12-12 (antibody, V domains shown)
VH: EVQLVQSGAEVKKPGASVKVSCKASGYTFTTYTIHWVRQAPGQGLEWMGYINPSSDYTRYNPKFKDRVTMTTDTSTSTAYMELRSLRSDDTAVYYCQTGTRDYWGQGTTVTVSS
VL: DIQLTQSPSFLSASVGDRVTITCSAASSVSYIYWYQQKPGKAPKLLIYSTSTLPSGVPSRFSGSGSGTEYTLTISSLQPEDFATYYCHQRNSFPFTFGQGTKLEIK
notes: IgG format; VH.1c + Vk.1a
B2: Hu6C12-15 (antibody, V domains shown)
VH: B1 VH with M70L
VL: B1 VL
notes: IgG format; VH.1f + Vk.1a
B3: Hu6C12-23 (antibody, V domains shown)
VH: B1 VH with M70L
VL: B1 VL with Y35F
notes: IgG format; VH.1f + Vk.1b
B4: Hu6C12-2 (antibody, V domains shown)
VH: B1 VH with Q97A
VL: B1 VL with Y70F
notes: IgG format; VH.1b + Vk.1
B5: Hu6C12-3 (antibody, V domains shown)
VH: B1 VH
VL: B1 VL with Y70F
notes: IgG format; VH.1c + Vk.1
B6: Hu6C12-6 (antibody, V domains shown)
VH: B1 VH with M70L
VL: B1 VL with Y70F
notes: IgG format; VH.1f + Vk.1
B7: Hu6C12-5 (antibody, V domains shown)
VH: B1 VH with M70L, Q97A
VL: B1 VL with Y70F
notes: IgG format; VH.1e + Vk.1
B8: Hu6C12-20 (antibody, V domains shown)
VH: B1 VH
VL: B1 VL with Y35F
notes: IgG format; VH.1c + Vk.1b
B9: Hu6C12-16 (antibody, V domains shown)
VH: B1 VH with M48I, M70L, T74K
VL: B1 VL
notes: IgG format; VH.1g + Vk.1a
B10: Hu6C12-7 (antibody, V domains shown)
VH: B1 VH with M48I, M70L, T74K
VL: B1 VL with Y70F
notes: IgG format; VH.1g + Vk.1
B11: Hu6C12-22 (antibody, V domains shown)
VH: B1 VH with M70L, Q97A
VL: B1 VL with Y35F
notes: IgG format; VH.1e + Vk.1b
B12: Hu6C12-19 (antibody, V domains shown)
VH: B1 VH with Q97A
VL: B1 VL with Y35F
notes: IgG format; VH.1b + Vk.1b
B13: TPP-8744 FVIII-scFv fusion protein (other)
chain: ATRRYYLGAVELSWDYMQSDLGELPVDARFPPRVPKSFPFNTSVVYKKTLFVEFTDHLFNIAKPRPPWMGLLGPTIQAEVYDTVVITLKNMASHPVSLHAVGVSYWKASEGAEYDDQTSQREKEDDKVFPGGSHTYVWQVLKENGPMASDPLCLTYSYLSHVDLVKDLNSGLIGALLVCREGSLAKEKTQTLHKFILLFAVFDEGKSWHSETKNSLMQDRDAASARAWPKMHTVNGYVNRSLPGLIGCHRKSVYWHVIGMGTTPEVHSIFLEGHTFLVRNHRQASLEISPITFLTAQTLLMDLGQFLLFCHISSHQHDGMEAYVKVDSCPEEPQLRMKNNEEAEDYDDDLTDSEMDVVRFDDDNSPSFIQIRSVAKKHPKTWVHYIAAEEEDWDYAPLVLAPDDRSYKSQYLNNGPQRIGRKYKKVRFMAYTDETFKTREAIQHESGILGPLLYGEVGDTLLIIFKNQASRPYNIYPHGITDVRPLYSRRLPKGVKHLKDFPILPGEIFKYKWTVTVEDGPTKSDPRCLTRYYSSFVNMERDLASGLIGPLLICYKESVDQRGNQIMSDKRNVILFSVFDENRSWYLTENIQRFLPNPAGVQLEDPEFQASNIMHSINGYVFDSLQLSVCLHEVAYWYILSIGAQTDFLSVFFSGYTFKHKMVYEDTLTLFPFSGETVFMSMENPGLWILGCHNSDFRNRGMTALLKVSSCDKNTGDYYEDSYEDISAYLLSKNNAIEPRSFSQNGGGGSTGGTGGSSGGGTGSGGGGTGGSGGTDIQLTQSPSFLSASVGDRVTITCRASSSVSYIYWFQQKPGKAPKLLIYATSTLQSGVPSRFSGSGSGTEYTLTISSLQPEDFATYYCHQRNSFPYTFGQGTKLEIKGGGGSGGGGSGGGGSGGGGSEVQLVQSGAEVKKPGASVKVSCKASGYTFTRYTIHWVRQAPGQGLEWMGYINPSSGYTRYNPKFKGRVTMTRDKSTSTAYMELRSLRSDDTAVYYCWTGTRDYWGQGTTVTVSSGGGGSQNPPVLKRHQREITDENQSPRSFQKKTRHYFIAAVERLWDYGMSSSPHVLRNRAQSGSVPQFKKVVFQEFTDGSFTQPLYRGELNEHLGLLGPYIRAEVEDNIMVTFRNQASRPYSFYSSLISYEEDQRQGAEPRKNFVKPNETKTYFWKVQHHMAPTKDEFDCKAWAYFSDVDLEKDVHSGLIGPLLVCHTNTLNPAHGRQVTVQEFALFFTIFDETKSWYFTENMERNCRAPCNIQMEDPTFKENYRFHAINGYIMDTLPGLVMAQDQRIRWYLLSMGSNENIHSIHFSGHVFTVRKKEEYKMALYNLYPGVFETVEMLPSKAGIWRVECLIGEHLHAGMSTLFLVYSNKCQTPLGMASGHIRDFQITASGQYGQWAPKLARLHYSGSINAWSTKEPFSWIKVDLLAPMIIHGIKTQGARQKFSSLYISQFIIMYSLDGKKWQTYRGNSTGTLMVFFGNVDSSGIKHNIFNPPIIARYIRLHPTHYSIRSTLRMELMGCDLNSCSMPLGMESKAISDAQITASSYFTNMFATWSPSKARLHLQGRSNAWRPQVNNPKEWLQVDFQKTMKVTGVTTQGVKSLLTSMYVKEFLISSSQDGHQWTLFFQNGKVKVFQGNQDSFTPVVNSLDPPLLTRYLRIHPQSWVHQIALRMEVLGCEAQDLY
notes: The entry is the mature protein; mostly a 2 chain molecule

Target: T1, purified human glycophorin A protein …
Experiment: ELISA, IgG

EC50	Binder
10.4 nM	B1
9.69 nM	B2
0.374 nM	B3
8.65 nM	B4
2.17 nM	B5
3.46 nM	B6
8.45 nM	B7
0.393 nM	B8
4.8 nM	B9
1.78 nM	B10
0.886 nM	B11
0.876 nM	B12

Target: T5, Cynomolgus monkey glycophorin A on Cynomolgus monkey red blood cells (Cynomolgus monkey)
T5 construct: whole, on cells; also called Cyno RBC; Cyno GPA
Experiment: FACS, RBC Cy01
Method: (§1) The binding of the humanized variants to intact red blood cells (RBC) from humans (Hu01 to 03; 3 individuals), Rhesus monkey (Rh01 to 03; 3 individuals) and Cynomolgus monkey (Cy01 to 02; 2 individuals) was measured by fluorescence activated cell sorting (FACS).

fluorescence intensity	Binder
959	B1
1010	B2
1140	B3
962	B4
1120	B5
1060	B6
1070	B7
1070	B8
1270	B9
1360	B10
991	B11
1040	B12

Target: T5, Cynomolgus monkey glycophorin A on …
Experiment: FACS, RBC Cy02
Method: as §1

fluorescence intensity	Binder
1030	B1
1070	B2
1320	B3
1030	B4
1200	B5
1100	B6
1140	B7
1250	B8
1360	B9
1430	B10
1170	B11
1240	B12

Target: T2, human glycophorin A in the red blood …
Experiment: FACS, RBC Hu01
Method: as §1

fluorescence intensity	Binder
646	B1
590	B2
1680	B3
897	B4
1070	B5
909	B6
921	B7
1670	B8
895	B9
1230	B10
1570	B11
1630	B12

Target: T2, human glycophorin A in the red blood …
Experiment: FACS, RBC Hu02
Method: as §1

fluorescence intensity	Binder
393	B1
375	B2
1300	B3
603	B4
739	B5
634	B6
625	B7
1300	B8
637	B9
945	B10
1170	B11
1270	B12

Target: T2, human glycophorin A in the red blood …
Experiment: FACS, RBC Hu03
Method: as §1

fluorescence intensity	Binder
484	B1
482	B2
1460	B3
716	B4
862	B5
786	B6
758	B7
1460	B8
786	B9
1100	B10
1330	B11
1440	B12

Target: T3, Rhesus monkey glycophorin A on Rhesus …
Experiment: FACS, RBC Rh01
Method: as §1

fluorescence intensity	Binder
1480	B1
1520	B2
1710	B3
1530	B4
1730	B5
1640	B6
1660	B7
1670	B8
2000	B9
2060	B10
1530	B11
1620	B12

Target: T3, Rhesus monkey glycophorin A on Rhesus …
Experiment: FACS, RBC Rh02

fluorescence intensity	Binder
1400	B1
1480	B2
1680	B3
1400	B4
1600	B5
1520	B6
1550	B7
1620	B8
1860	B9
1940	B10
1490	B11
1510	B12

Target: T3, Rhesus monkey glycophorin A on Rhesus …
Experiment: FACS, RBC Rh03
Method: as §1

fluorescence intensity	Binder
1410	B1
1490	B2
1700	B3
1380	B4
1600	B5
1540	B6
1560	B7
1550	B8
1870	B9
1920	B10
1450	B11
1520	B12

Target: T4, glycophorin A peptide GP5
Experiment: Octet, GP5 peptide on the probe, fusion protein in solution, 1:1 fit

Kd	koff	kon	Binder
7.35 nM	0.0048 s⁻¹	652000 M⁻¹ s⁻¹	B13
